62 molecules from patent US20200399314A1 (MEDIKINE, published 2020) can be followed below.

Bridge positions count the residues as written; N and C are the ends. Ends that are not written are not given here.

B1: SEQ ID NO 295 (peptide)
peptide: LSVCSCPPGQLYCMVE
modifications: disulfide (positions not given here); also: disulfide between two of the three Cys, which not given here
B2: SEQ ID NO 304 (peptide)
peptide: LSVCSCPPGQLYCMVE
modifications: disulfide (positions not given here); also: disulfide between two of the three Cys, which not given here

The test has as its target T1, human IL-2Rα subunit (human, UniProt P01589 22-213, limits assumed).
T1 construct: also called CD25
T1 sequence (looked up): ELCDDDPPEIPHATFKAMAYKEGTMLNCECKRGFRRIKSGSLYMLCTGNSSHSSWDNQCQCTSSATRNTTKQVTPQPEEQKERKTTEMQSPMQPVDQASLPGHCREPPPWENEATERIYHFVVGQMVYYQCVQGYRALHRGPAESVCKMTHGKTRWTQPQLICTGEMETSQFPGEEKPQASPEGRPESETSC
As for VTQCFDGPGSFRCCYQ [SEQ ID NO 306], the IC50 was < 100 µM.
For IRCRLDPPGSYKTCVF (disulfide 3-14 (inferred)) [SEQ ID NO 273], the IC50 is < 100 µM.
Regarding SICCTPQLCHSCDG [SEQ ID NO 290], the IC50 was < 100 µM.
Regarding CRVWCNQAECMCIF [SEQ ID NO 287], the IC50 is < 100 µM.
As to SHGVCCTQSSCRSCR [SEQ ID NO 280], the half-inhibitory concentration (IC50) is < 100 µM.
Next, RSVCCSSYGCRACFG [SEQ ID NO 284]: < 100 µM; LRCRLDTRDGTCRF [SEQ ID NO 75]: < 100 µM.
Next, YVLCSNRNGCRP [SEQ ID NO 41]: < 100 µM.
Next, AICSEDEGGELCCWH [SEQ ID NO 293]: < 100 µM; WWISCLRDLRCLEYF [SEQ ID NO 276]: < 100 µM; VWDCFVRGWEAGVAAVGE [SEQ ID NO 270]: < 100 µM.
Take RYCSPLIPGSALGCPR [SEQ ID NO 272]: the 50% inhibitory concentration (IC50) was < 100 µM.
Next, TIKCGSSGWCWVEAG [SEQ ID NO 301]: < 100 µM; HVICSVNGGCRG [SEQ ID NO 44]: < 100 µM.
WVACSWDHGCRS (disulfide 4-10 (inferred)) [SEQ ID NO 43]: the IC50 is < 100 µM.
Take HEICCGPPGCHSCSVT [SEQ ID NO 303]: the IC50 is < 100 µM.
For RRFCLRSEPAACWFV [SEQ ID NO 67], the half-inhibitory concentration (IC50) was < 100 µM.
Take MVSCTDLGCVVVGGG [SEQ ID NO 302]: the IC50 is < 100 µM.
With VVHCLQSGCYSVGSG [SEQ ID NO 300], the IC50 is < 100 µM.
As for NHCTMDWRLGACIF [SEQ ID NO 77], the IC50 is < 100 µM.
The result for B1 reads < 100 µM; that for LECQPYRGPLYYCQD [SEQ ID NO 289], < 100 µM.
In the case of B2, the IC50 is < 100 µM.
As to CVVCSALGCRACVPR [SEQ ID NO 269], the IC50 is < 100 µM.
Consider MACCTPRGCRPC [SEQ ID NO 283], for which the IC50 is < 100 µM.
Regarding STWCCLHPGVGECQAV [SEQ ID NO 305], the IC50 is < 100 µM.
For the molecule AVSCSRLTGRCHSL [SEQ ID NO 278], the IC50 is < 100 µM.
For SRCSFDVTKQECVF (disulfide 3-12 (inferred)) [SEQ ID NO 288], the IC50 was < 100 µM.
With EQFCLVSDPMACWSL (disulfide 4-12 (inferred)) [SEQ ID NO 50], the IC50 was < 100 µM.
As for WVACNRVTGSCRPI [SEQ ID NO 279], the IC50 is < 100 µM.
For CKLTCTSSTCSCVF [SEQ ID NO 285], the IC50 is < 100 µM.
Next, RVYCLASEPNSCWST [SEQ ID NO 52]: < 100 µM; MVSCTDLGCVVVGGG [SEQ ID NO 299]: < 100 µM.
Turning to RQCNCLSPGELVNCQQ [SEQ ID NO 298], the IC50 is < 100 µM.
As to IKCRVLEAGTPCVF (disulfide 3-12 (inferred)) [SEQ ID NO 73], the IC50 is < 100 µM.
HEICCGPPGCHSCSVT [SEQ ID NO 294]: the half-inhibitory concentration (IC50) is < 100 µM.
CMLKCTNAICECIF [SEQ ID NO 286]: the IC50 was < 100 µM.
HTVCCQDWGCRSCSG [SEQ ID NO 282]: the IC50 was < 100 µM.
Next, IRCRYEKQSGICLF [SEQ ID NO 74]: < 100 µM; SGCRLSLLDGHCYF [SEQ ID NO 78]: < 100 µM.
Next, VTQCFDGPGSFRCCYQ [SEQ ID NO 297]: < 100 µM.
The result for WVICSALGCKAW [SEQ ID NO 36] reads < 100 µM; that for TKLCLKSEPQACWSM [SEQ ID NO 53], < 100 µM; that for STWCCLHPGVGECQAV [SEQ ID NO 296], < 100 µM.
As for WAYDWSCFRRRL [SEQ ID NO 3], the concentration for half-maximal inhibition (IC50) is < 100 µM.
For the molecule FLHWPVYFCQVM [SEQ ID NO 4], the half-inhibitory concentration (IC50) was < 100 µM.
Next, LTCLIFKPGTHRHCPV [SEQ ID NO 271]: < 100 µM.
The result for WVACNRLSGCCRPI [SEQ ID NO 281] reads < 100 µM.
Take FLPWPVYFSQVL [SEQ ID NO 5]: the IC50 is < 100 µM.
In the case of WVICSAVGCRPF (disulfide 4-9 (inferred)) [SEQ ID NO 31], the IC50 is < 100 µM.
Next, WVICSALGCRPF [SEQ ID NO 35]: < 100 µM; YVTCRWGYGCTR [SEQ ID NO 42]: < 100 µM; RSCNRYGIWGHCDT [SEQ ID NO 72]: < 100 µM.
Regarding KYWCLRSEPDACFAT (disulfide 4-12 (inferred)) [SEQ ID NO 51], the IC50 was < 100 µM.
As to MRCILSPSREHCLF [SEQ ID NO 76], the IC50 is < 100 µM.
Regarding TTQSCTLRYCWLLQ (disulfide 5-10 (inferred)) [SEQ ID NO 275], the IC50 is < 100 µM.
KLFCLRSGDRACWVV (disulfide 4-12 (inferred)) [SEQ ID NO 60]: the IC50 was < 100 µM.
With CVACSSDGCSPIIC [SEQ ID NO 292], the IC50 was < 100 µM.
Take RGVICNHAGCRIWYG [SEQ ID NO 274]: the IC50 is < 100 µM.
In the case of RHACKTWYRMCIVS [SEQ ID NO 277], the IC50 is < 100 µM.
As for TTCCTSEGCHKCITL [SEQ ID NO 291], the IC50 is < 100 µM.
Regarding RQCNCLSPGELVNCQQ [SEQ ID NO 307], the IC50 was < 100 µM.
